Data from article PMC6694677.

Assays:
[1] = biological target: HER2 on SK-BR-3 cells (human (endogenous in SK-BR-3)) (UniProt P04626); assay: FACS; conditions: bispecific antibody
[2] = biological target: CD3 on Jurkat cells (human (endogenous in Jurkat)) (UniProt P07766); assay: FACS; conditions: bispecific antibody
[3] = biological target: recombinant CD3 antigen (ectodomain of hCD3) (human) (UniProt P07766); assay: SPR; ProteOn XPR36, GLC chip; CD3 antigen immobilised by amine coupling at 1000 RU; antibodies (M802 0 to 50 nM) injected; Two state interaction model; KD = Kd/Ka
Chain of recombinant CD3 antigen (ectodomain of hCD3) (human) (P07766 23-126): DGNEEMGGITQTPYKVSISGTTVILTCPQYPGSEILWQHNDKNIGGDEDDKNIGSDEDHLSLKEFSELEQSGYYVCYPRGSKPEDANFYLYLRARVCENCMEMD

[4] = biological target: recombinant HER2 antigen (ectodomain of hHER2) (Homo sapiens) (UniProt P04626); assay: SPR; ProteOn XPR36, GLC chip; HER2 antigen immobilised by amine coupling at 1000 RU; antibodies (M802 0 to 50 nM) injected; 1:1 L interaction model; KD = Kd/Ka
[5] = biological target: HER2 on SK-BR-3 cells (human (endogenous in SK-BR-3)) (UniProt P04626); assay: flow cytometry on cells; SK-BR-3 or Jurkat cells with serially diluted antibody, 1 h at room temperature; PE-conjugated anti-human IgG Fc as secondary antibody
[6] = biological target: recombinant CD3 antigen (ectodomain of hCD3) (human) (UniProt P07766); assay: SPR; ProteOn XPR36; HER2 and CD3 antigens amine-coupled on a GLC chip at 1000 RU; M802 (0 to 50 nM) and other antibodies injected; 1:1 L interaction model for HER2, two state interaction model for CD3
[7] = biological target: recombinant HER2 antigen (ectodomain of hHER2) (Homo sapiens) (UniProt P04626); assay: as above

Chain of CD3 on Jurkat cells (human (endogenous in Jurkat)) (P07766 23-207, chain 1 of 3): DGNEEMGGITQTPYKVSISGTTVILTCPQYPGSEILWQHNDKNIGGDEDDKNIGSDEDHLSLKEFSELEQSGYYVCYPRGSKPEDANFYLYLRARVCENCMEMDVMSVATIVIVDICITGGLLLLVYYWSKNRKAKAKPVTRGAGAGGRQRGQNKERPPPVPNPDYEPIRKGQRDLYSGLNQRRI
Chain of CD3 on Jurkat cells (human (endogenous in Jurkat)) (P04234 22-171, chain 2 of 3, further chain): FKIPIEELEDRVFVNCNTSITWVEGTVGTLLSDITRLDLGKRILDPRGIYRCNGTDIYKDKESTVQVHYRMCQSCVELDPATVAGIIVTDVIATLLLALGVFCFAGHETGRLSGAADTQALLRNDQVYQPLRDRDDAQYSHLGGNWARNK
Chain of CD3 on Jurkat cells (human (endogenous in Jurkat)) (P09693 23-182, chain 3 of 3, further chain): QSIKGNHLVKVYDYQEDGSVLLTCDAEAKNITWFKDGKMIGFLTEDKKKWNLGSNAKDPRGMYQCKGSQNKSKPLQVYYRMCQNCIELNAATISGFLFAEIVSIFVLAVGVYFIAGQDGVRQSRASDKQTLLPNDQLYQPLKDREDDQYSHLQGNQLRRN

M802, anti-HER2/CD3 bispecific antibody (MSBODY format: monovalent unit against HER2 and single chain unit against CD3) (from UniProt P01857)
Kd [1]: 11.7 nM
Kd [2]: 187 nM

M802, anti-HER2/CD3 bispecific antibody (monovalent unit against HER2 and single chain unit against CD3)
koff [3]: 0.0245 s⁻¹
kon [3]: 345000 M⁻¹ s⁻¹
koff [4]: 0.000248 s⁻¹
kon [4]: 429000 M⁻¹ s⁻¹

M802, anti-HER2/CD3 bispecific antibody (MSBODY format: monovalent unit against HER2 and single chain unit against CD3)
fold weaker affinity than Herceptin [5]: 3 fold
Kd [6]: 71.2 nM
Kd [7]: 0.578 nM
